Experiments:
HLA-A*02:01 = test: IEDB peptide-MHC binding, purified MHC/competitive/radioactivity; filed as Kd, often an IC50 or EC50 that approximates it; ≥ and ≤ were set here for values at or beyond the usual limits of such assays
HLA-A*11:01 = test: as above
[1] = source organism: Mammarenavirus choriomeningitidis
[2] = source organism: Mammarenavirus brazilense

Q: Which Kd (HLA-A*02:01; source organism: Mammarenavirus guanaritoense) does the source give for AQPGLLSYV here?
A: 161 nM

Q: Which Kd (HLA-A*11:01; [1]) does the source give for FTNDSIISH here?
A: 38 nM

Q: GLSQFTQTV was tested. Which Kd (HLA-A*02:01; source organism: Mammarenavirus juninense) did it give?
A: 30 nM

Q: How did the Kd (HLA-A*11:01; [2]) turn out when KCLNIMLGK was run?
A: 678 nM

Q: For LVSFLLLAGR, which Kd (HLA-A*11:01; [1]) is on record?
A: 70 nM

Q: Which Kd (HLA-A*11:01; source organism: Mammarenavirus lassaense) does the source give for LVTFLLLCGR here?
A: ≥ 5000 nM

Q: With SIQKNTIFK as the sequence, how does the Kd (HLA-A*11:01; source organism: Mammarenavirus machupoense) read?
A: 5.5 nM

Q: With SSIIRSLPK as the sequence, how does the Kd (HLA-A*11:01; source organism: Mammarenavirus whitewaterense) read?
A: 2.5 nM

Q: SSQRDTILK was tested. Which Kd (HLA-A*11:01; [2]) did it give?
A: 9.3 nM

Q: How did the Kd (HLA-A*11:01; [2]) turn out when STYYVHENK was run?
A: 6 nM

Q: How did the Kd (HLA-A*11:01; [1]) turn out when TTYLGPLSCK was run?
A: 2.8 nM

From the Immune Epitope Database (IEDB)
